Assay results taken from patent publication US11180762B2, “Methods and compositions for the treatment of cancer” (CHILDREN'S MEDICAL CENTER CORPORATION, priority 2014, dated 2021).
Entries after “also recorded” stand apart in the source; their conditions may differ.

How the values were obtained:
[1] = test system: co-cultures of GFP− TNBC cells and GFP+ BPE cells; assay: Co-culture of tumor cells with GFP+ BPE cells, relative survival by flow cytometry; type: cell-based, human
Experimental: To determine whether EpCAM-AsiCs specifically target EpCAM+ cells when mixed with EpCAM^dim non-transformed epithelial cells, we incubated co-cultures of GFP− TNBC cells and GFP+ BPE cells with PLK1 EpCAM-AsiCs or medium and used GFP fluorescence to measure their relative survival by flow cytometry 3 days later (FIG. 2D, 2E). […] Thus PLK1 EpCAM-AsiCs are selectively cytotoxic for EpCAM+ tumor cells when mixed with normal cells.
To understand whether EpCAM-AsiC can specifically target basal A and luminal breast cancer cells and inhibit proliferation we designed an EpCAM-AsiC targeting PLK1. PLK1 is a known trigger for […] transition. The effect of EpCAM-AsiC targeting PLK1 on cell proliferation was tested on 10 breast cancer cells representative of basal A, B and luminal cell lines. […] A correlation was seen between EpCAM expression levels and cell viability (FIG. 27B). To understand if EpCAM-AsiC will specifically target EpCAM+ cells in a mix cell population HCC1937 (EpCAM+GFP−) cell were co-cultured with BPE (EpCAM-GFP+) cells and treated with EpCAM-AsiC targeting PLK1 or untreated. […] The co-culture was repeated with other basal A cell lines (MB468 and HCC1143) similar reults were obtained. When BPE cells were grown in a co-culture with basal B cell (MB231) the ratio between BPE and MB231 cells stayed the same regardless of the EpCAM-AsiC treatment (66% BPE and 33% MB231 in untreated co-culture and 61% BPE and 38% MB231 following EpCAM-AsiC treatment) (FIG. 27C, 27D).

[2] = test system: human breast tumor and normal breast tissue biopsies; assay: Uptake in human breast tumor and normal tissue biopsy explants; type: cell-based; settings: 2 μM; 24 h; flow cytometry of single cell suspensions
From the text: It was next examined whether EpCAM-AsiCs concentrate in human breast tumors relative to normal breast samples within intact tissues. Paired normal tissue and breast tumor biopsies from 3 breast cancer patients were cut into cubes with −3 mm edges and placed in Petri dishes. The tumor sample cells were all EpCAM^bright and the normal tissue cells were EpCAM^dim (FIG. 3A). Fluorescently labeled Alexa647-siRNAs (not expected to be taken up by either normal tissue or tumor), Alexa647-cholesterol-conjugated siRNAs (chol-siRNAs, expected to be taken up by both), or Cy3-EpCAM-AsiCs were added to the culture medium and the tissues were incubated for 24 hr before harvest. The Cy3 signal of the AsiC, which could be visualized by the naked eye, concentrated only in the tumor specimens and was not detected in normal tissue (FIG. 3B). To quantify RNA uptake, flow cytometry analysis was performed on washed single cell suspensions of the tissue specimens (representative tumor-normal tissue pair (FIG. 3C), mean±SD of triplicate biospies from 3 EpCAM^bright paired breast tumor-normal tissue samples (FIG. 3D)). […] Thus, within intact tissue, EpCAM-AsiCs are selectively delivered to EpCAM^bright tumors relative to normal tissue. […]

[3] = test system: MB468-luc tumors; assay: Tumor inhibition, EpCAM+ MB468-luc xenograft; type: in vivo, nude mice; settings: for growth of EpCAM+ MB468 tumors: 5 mg/kg sc every 3 d (72 h) for 2 wks
Experimental: For tumor inhibition studies, MB468-luc (5×10^6) and MB231-luc-mCherry (5×10^5) cells trypsinized with Tryple Express (Invitrogen), resuspended in a 1:1 WIT-Matrigel solution and injected subcutaneously in the flank of 8-week old female Nu/J mice (Stock #002019, Jackson Laboratories). Tumors size was analyzed daily using the IVIS Spectra, after 5 days tumors were clearly visible. […] Mice were treated every 72 h for 14 days.

[4] = test system: IFNβ, IL-6, IP-10 and IFN-induced genes; assay: Innate immune stimulation in mice; type: in vivo; settings: 5 mg/kg sc
Experimental: Mice were injected sc with eGFP EpCAM-AsiCs (5 mg/kg, n=3) or ip with Poly(I:C) (5 or 50 mg/kg (n=2/dose). FIG. 8A: Serum samples, collected at baseline and 6 and 16 hr after treatment were assessed for IFNβ, IL-6 and IP-10 by multiplex immunoassay. * p<0.05. ** p<0.01, *** p<0.001, compared to baseline. FIG. 8B: mRNA expression of cytokine and IFN-induced genes, relative to gapdh was assayed by qRT-PCR in total splenocytes harvested 16 hr post treatment. ** p<0.01, compared to untreated (NT, n=3).
Mice were injected sc with eGFP EpCAM-AsiCs (5 mg/kg) or ip with Poly(I:C) (5 or 50 mg/kg). Serum samples, collected at baseline and 6 and 16 hr after treatment were stored at −80° C. before measuring IFNβ, IL-6 and IP-10 using the ProcartaPlex Multiplex Immunoassay (Affymetrix/eBioscience, San Diego, Calif.). Spleens, harvested at sacrifice 16 hr post treatment, were stored in RNAlater (Qiagen) before extracting RNA using TRIZOL (Invitrogen) with the gentleMACS Dissociator (MACS Miltenyi Biotec, San Diego, Calif.). cDNA was synthesized using Superscript III and random hexamers (Invitrogen) and PCR was performed using SsoFast EvaGreen Supermix and a Bio-Rad CFX96 Real-Time PCR System (Bio-Rad Laboratories, Hercules, Calif.) using the following primers: […]

[5] = test system: breast cancer cell lines; assay: Colony formation assay; type: cell-based, human; settings: AsiC 4 uM, paclitaxel 100 nM
Experimental: For colony formation assay, 1,000 viable cells were treated for 6 h in round bottom 96-well plates and then transferred to 10-cm plates in serum-containing medium. Medium was replaced every 3 d. After 8-14 d, cells were fixed in methanol (−20 C) and stained with crystal violet. For sphere formation assay, 1,000/ml viable cells were treated for 6 h in round bottom 96-well plates and then cultured in suspension in serum-free DMEM/F12 1:1 (Invitrogen), supplemented with EGF (20 ng/ml, BD Biosciences), B27 (1:50, Invitrogen), 0.4% bovine serum albumin (Sigma) and 4 μg/ml insulin (Sigma). Spheres were counted after 1 or 2 weeks.

[6] = listed as EpCAM-AsiC targeting PLK1

B1: EpCAM-AsiC: EpCAM aptamer-siRNA chimera, siRNA cargo not specified at the place; 2'-fluoropyrimidines, 3'-dTdT (nucleic acid)
sense: GCGACUGGUUACCCGGUCGUUUUGAAGAAGAUCACCCUCCUUATT
antisense: UAAGGAGGGUGAUCUUCUUCATT
modifications: DNA at T, 2'-fluoro at CU, RNA at AG, backbone not given here; further chemistry not fully specified
notes: EpCAM aptamer-siRNA chimera, siRNA cargo not specified at the place; 2'-fluoropyrimidines, 3'-dTdT
decrease of the proportion of surviving tumor cells ([1]; BPE mixed with epithelial TNBC lines, after 3 d): 7 fold | uptake by breast tumor vs normal tissue [2]: concentrated only in the tumors | injections until complete tumor regression ([3]; very aggressive TNBC xenograft model): 3 injections | innate immune stimulation [4]: do not trigger innate immunity | innate immune stimulation ([4]; listed as EpCAM AsiCs): does not stimulate innate immunity in mice

B2: PLK1 EpCAM-AsiC: EpCAM aptamer linked by U-U-U to PLK1 siRNA sense strand (SEQ ID NO: 1), annealed to antisense strand (SEQ ID NO: 2) (nucleic acid)
sense: B1 sense
antisense: UAAGGAGGGUGAUCUUCUUCATT
modifications: DNA at T, 2'-fluoro at CU, RNA at AG, backbone not given here; EpCAM aptamer fused to sense strand
proportion of surviving EpCAM+ basal-A tumor cells ([1]; 3 days): greatly reduced the proportion of surviving EpCAM+ basal-A tumor cells | survival of an EpCAM− basal-B cell line in co-culture ([1]; 3 days): had no effect on survival of an EpCAM− basal-B cell line | share of EpCAM− (BPE) cells in co-culture after treatment ([1]; HCC1937 + BPE, untreated 41% BPE): 83% | share of EpCAM+ (HCC1937) cells in co-culture after treatment ([1]; HCC1937 + BPE, untreated 59% HCC1937): 17% | share of MB231 cells in co-culture after treatment ([1]; MB231 + BPE, untreated 33% MB231): 38% | share of BPE cells in co-culture after treatment ([1]; MB231 + BPE, untreated 66% BPE): 61% | colony formation, EpCAM+ basal-A and luminal lines [5, 6]: lost the ability to form colonies; also recorded: only eliminated colony formation in luminal (MCF7) and basal A (HCC1954) cells | colony formation, EpCAM− basal-B lines [5, 6]: did not effect colony formation | colony formation, EpCAM+ basal-A and luminal lines ([5]; listed as PLK1 EpCAM-AsiCs): more strongly inhibited colony and mammosphere formation of EpCAM+ basal-A TNBCs and luminal cell lines than paclitaxel; also recorded: eliminated mammosphere and colony formation; also recorded: more strongly inhibited colony and mammosphere formation of multiple EpCAM+ basal-like TNBCs and a luminal cell line than paclitaxel | colony formation, EpCAM− basal-B lines ([5]; listed as PLK1 EpCAM-AsiCs): inactive against EpCAM− basal-B TNBCs | time at which tumors completely disappeared in many mice ([3]; 5 mg/Kg every 72 h): 14 days | time of first tumor shrinkage ([3]; 5 mg/Kg every 72 h): 6 days | growth of EpCAM+ MB468 tumors [3]: regress only after treatment with PLK1 EpCAM-AsiC | growth of EpCAM+ MB468 tumors ([3]; listed as PLK1-targeting AsiCs): rapidly completely regressed | growth of EpCAM+ MB468 tumors ([3]; listed as PLK1 EpCAM-AsiCs): caused complete tumor regression of EpCAM+ TNBC xenografts
